{"source": "FireProtDB (doi:10.1021/bi00118a013)", "conditions": "Aspergillus oryzae (strain ATCC 42149 / RIB 40), pH 7, Fluorescence, MOPS 30 mM, reversible: yes, whole UniProt chain shown"}
{"protein": "Guanyl-specific ribonuclease T1 wild type, P00651 (protein) MMYSKLLTLTTLLLPTALALPSLVERACDYTCGSNCYSSSDVSTAQAAGYQLHEDGETVGSNSYPHKYNNYEGFDFSVSSPYYEWPILSSGDVYSGGSPGADRVVFNENNQLAGVITHTGASGNNFVECT", "values": [{"measurement": "denaturant m value", "setting": "25 °C, Urea", "value": 1.21, "unit": "kcal/mol/M"}, {"measurement": "denaturant midpoint (higher = more stable)", "setting": "25 °C, Urea", "value": 5.3, "unit": "M"}, {"measurement": "Tm", "setting": "Thermal", "value": 50.9, "unit": "°C"}, {"measurement": "unfolding enthalpy (van 't Hoff)", "setting": "Thermal", "value": 110, "unit": "kcal/mol"}]}
